The values below come from the DeepSol protein solubility set.

A short description of this data set: soluble on expression in E. coli; label from the status in PepcDB or PDB records.
As to “MGSDKIHHHHHHMMFEFNFARAMASLREEYAKDAKINIQHVWQNETAAVIAKALATEVSFDNAMFVENKPMRISDQQIRQLPVEAQKDLQQKILQNAANGIGFLYGSHLVGGLDGKPSPELLTSLHRFINSPDMFKFIQSITGIEGICYASLQASRYIQGNFLTRHNDVVESEGRKVAFVFGFTPEWHPDWGGLLQFYTPKGVLTDTWVPTFNNLALFDVHHPHSVSFVAPFAKRPRFSVTGWFRTIAPSK”, the “soluble on expression in E. coli” value was “not soluble”.
Under “MTRPVIVPFFISHQGCPHRCVFCDQERIAGRAGRLPSAAEIHSAVKTFGRGRPVEAAFYGGTFTSLPRNEQERLLAALQPLRHDGSVRSVRLSTRPDALDAETAGFLKSMGVASVELGVQSMDDQVLDVSGRGHSAADTVRAFDVLRSEGIAVGAQLMPGLPGDSRERSLDSLTRILDLKPVSLRIYPTLVVAGTRLAEFWAEGSYTPLTLADAVPLCADMLLACKRAGVPVIRLGLQPTDILERSVLAGPWHPALRQLVEGELWYRLLERLTTGLAAGTVVSVACAPARISDVVGQRRVNLSRLLERRGIVVTGVAGCPTAAPDTLTLTHAGGTVAGSLTD” stands “not soluble”; under “MARAVHRSGLVALGIATALMASCAFAAKDVVVAVGSNFTTLDPYDANDTLSQAVAKSFYQGLFGLDKEMKLKNVLAESYTVSDDGITYTVKLREGIKFQDGTDFNAAAVKANLDRASDPANHLKRYNLYKNIAKTEAIDPTTVKITLKQPFSAFINILAHPATAMISPAALEKYGKEIGFYPVGTGPYELDTWNQTDFVKVKKFAGYWQPGLPKLDSITWRPVADNNTRAAMLQTGEAQFAFPIPYEQATLLEKNKNIELMASPSIMQRYISMNVTQKPFDNPKVREALNYAINRPALVKVAFAGYATPATGVVPPSIAYAQSYKPWPYDPVKARELLKEAGYPNGFSTTLWSSHNHSTAQKVLQFTQQQLAQVGIKAQVTAMDAGQRAAEVEGKGQKESGVRMFYTGWSASTGEADWALSPLFASQNWPPTLFNTAFYSNKQVDDFLAQALKTNDPAEKTRLYKAAQDIIWQESPWIPLVVEKLVSAHSKNLTGFWIMPDTGFSFEDADLQ”, “soluble”.
For the sequence “MSTLADQALHNNNVGPIIRAGDLVEPVIETAEIDNPGKEITVEDRRAYVRIAAEGELILTRKTLEEQLGRPFNMQELEINLASFAGQIQADEDQIRFYFDKTM”, the “soluble on expression in E. coli” value is “soluble”.
Take “MSFFKKLKEKISKQTDTVTEKFKQGLEKTRNSFADKVNDLVFRYRKVDEDFFEELEEILIGADVGVSTVMELIDQLKEEVQRRNIQDPREVQAVISEKLIEIYKGDSDFTNEVNMQKDGLTVVLFVGVNGVGKTTTIGKMAHKFKSEGKSVLLAAGDTFRAGAIEQLEVWGDRVGVEVIKQGSGSDPAAVMYDAVQAAKARNVDVLLCDTAGRLQNKVNLMKELEKVKRVIEREVPGAPHEVLLVIDATTGQNGLSQAKTFREATNVTGIVLTKLDGTAKGGIVLAIRNEMDVPVKFVGLGEQMDDLQQFDPEQYVYGLFANLVETEEV”: the “soluble on expression in E. coli” value is recorded as “not soluble”.
Next, “MGSDKIHHHHHHMLKHFGSKVRNLRVTRNITREDFCGDETELSVRQLARIESGQSIPNLTKAHYIAKQLNVKLDILTGGESLELPKRYKELKYLILRIPTYADAERLKLRECQFDHIFEEFYDNLPEDECLAIDSLQAKFEVYQTGDINFGVEVLCECFDKVKYKEKYTLNDLIIIDLFLTCAVVSKFNNRAFTKEVFQTICKTLISQNHKLTAEDLFWFNHVLLNCVFVGLCLNSEECLAEMLEVSRQTMVSTHDFHKMPLYFMYQWKYFITIDNDIKSAENAYQQSIMFSKMIDDKHLIKKLELEWQEDITGH”: “not soluble”; “MRREALKTAVLKIMIEKMELKNVTHLEETMRLNQDLYIDSVMMLQLIVYIEMDVKLCVPEDEVDPKAFLTVGSLLDFMEELEPLQEVNVNN”: “not soluble”.
Under “RPVGTIFVIGDTKEVMKHSHQLVPNPFKGHKINIMNPKVKPIIKEFSFLDGAFIISSTGRVVAAGRYLDVDPKKLEIDIPQGLGSRHLASAAITKVTKAIAITLSESGVIRVFKDGK” stands “soluble”; under “MMKKEKELLVAIASQKGGVGKSVFTVLLASVLHYRKDVRVAVVDCDSPQHSIALMRERDMENVMKNDDLKVNLYRQYERIRKPAYPVIKSDPEKGVEDLRRYMDEKGETFDIVLFDLPGTLRSEGVVHTVAAMDYIFVPLKADNIVMQSSLQFTKVLEEELIAKGNCNLKGIRLFWNMVDRRGRKNLYDAWNRVIHRMGLRLLSSHIPNTLRYNKEADPVCKGVFRSTLFPPDPRQEKDSGLPELVEAAFFGRDPGITLL”, “not soluble”.
